Measurements as given in the supplement of paper PMC10724198.
± gives the standard deviation of the averaged measurements.

What was measured:
[1] = system: Saccharomyces cerevisiae; experiment: protein stability index of tFT-peptide fusion (C-terminal peptide) (PSI (0-1 scale)); higher = more stable (slower turnover)
Method: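 MPS profiling in S. cerevisiae of the tFT-X12 degron library: putative degron peptides plus stable controls, 12 aa, fused to the C-terminus of a sfGFP-mCherry timer. Cells are FACS-sorted into 8 mCherry/sfGFP bins and deep-sequenced. PSI runs from 0 (unstable) to 1 (stable). Backgrounds are wild type, das1Δ and doa10Δ at 30 °C, and wild type, das1Δ, cdc34-1 and cdc53-1 at 37 °C; 2-3 technical replicates each.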

[2] = system: Saccharomyces cerevisiae; experiment: as above; conditions: genetic background: wild type; temperature: 30 C
[3] = genetic background: cdc34-1, temperature: 37 C
[4] = genetic background: cdc53-1, temperature: 37 C
[5] = genetic background: das1 deletion, temperature: 30 C
[6] = genetic background: das1 deletion, temperature: 37 C
[7] = genetic background: doa10 deletion, temperature: 30 C
[8] = genetic background: wild type, temperature: 30 C
[9] = genetic background: wild type, temperature: 37 C
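Note: PSI is a weighted mean of sequencing reads over stability bins, variants kept only with over 10 reads, mCherry proximal and sfGFP distal, peptide attached via GGGS linker.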

Sequence | protein stability index [1, 3] | protein stability index [1, 4] | protein stability index [1, 5] | protein stability index [1, 6] | protein stability index [1, 7] | protein stability index [1, 8] | protein stability index [1, 9] | protein stability index [2]
WLCLAVLVRFPC | 0.273 ± 0.0054 | 0.274 ± 0.018 | 0.25 ± 0.043 | 0.3989 ± 0.0019 | 0.2621 ± 0.0017 | 0.248 ± 0.017 | 0.369 ± 0.018 | 0.3532 ± 0.0026
LYLGCVLFVLFR | 0.197 ± 0.045 | 0.151 ± 0.024 | 0.216 ± 0.029 | 0.368 ± 0.0098 | 0.273 ± 0.0047 | 0.198 ± 0.024 | 0.312 ± 0.036 | 0.234 ± 0.054
PFALTPPPSPRS | 0.745 ± 0.011 |  | 0.384 ± 0.024 | 0.583 ± 0.0083 | 0.356 ± 0.024 | 0.366 ± 0.0092 | 0.52 ± 0.046 | 0.426 ± 0.043
SCCLLICIFFIF | 0.317 ± 0.045 | 0.408 ± 0.065 | 0.306 ± 0.015 | 0.391 ± 0.064 | 0.227 ± 0.0076 | 0.231 ± 0.029 | 0.33 ± 0.0056 | 0.297 ± 0.0023
TLLSSIFLCLVL | 0.575 ± 0.018 | 0.6448 ± 0.0023 | 0.477 ± 0.031 | 0.6128 ± 0.0011 | 0.466 ± 0.012 | 0.462 ± 0.024 | 0.574 ± 0.022 | 0.541 ± 0.1
VGRANLSVIRKV | 0.632 ± 0.016 | 0.733 ± 0.016 | 0.636 ± 0.014 | 0.715 ± 0.019 | 0.243 ± 0.011 | 0.29 ± 0.024 | 0.588 ± 0.013 | 0.436 ± 0.013
LLLTAIRVLRMH | 0.561 ± 0.016 | 0.7045 ± 0.0038 | 0.587 ± 0.021 | 0.7177 ± 0.0014 | 0.118 ± 0.0018 | 0.149 ± 0.037 | 0.217 ± 0.033 | 0.169 ± 0.056
RVFVGLVDFLFW | 0.437 ± 0.033 | 0.553 ± 0.073 | 0.402 ± 0.025 | 0.6062 ± 0.0026 | 0.37 ± 0.019 | 0.394 ± 0.033 | 0.57 ± 0.035 | 0.471 ± 0.072
GFGRRGQFGGTG | 0.86 ± 0.079 | 0.863 ± 0.016 | 0.607 ± 0.019 | 0.801 ± 0.048 | 0.542 ± 0.039 | 0.567 ± 0.04 | 0.835 ± 0.059 | 0.574 ± 0.14
GILILRLILCLF | 0.251 ± 0.027 | 0.302 ± 0.047 | 0.248 ± 0.033 | 0.385 ± 0.023 | 0.171 ± 0.0058 | 0.189 ± 0.018 | 0.24 ± 0.012 | 0.227 ± 0.0044
LLCSLGFRFSLF | 0.651 ± 0.033 | 0.728 ± 0.011 | 0.651 ± 0.019 | 0.725 ± 0.019 | 0.289 ± 0.0056 | 0.328 ± 0.044 | 0.546 ± 0.038 | 0.377 ± 0.034
FCVVFFLSLVFL | 0.457 ± 0.01 | 0.491 ± 0.03 | 0.391 ± 0.027 | 0.511 ± 0.013 | 0.4225 ± 0.0026 | 0.386 ± 0.0062 | 0.49 ± 0.0029 | 0.495 ± 0.046
GMGHLSNVCLKT | 0.689 ± 0.008 | 0.765 ± 0.0086 | 0.639 ± 0.012 | 0.726 ± 0.0093 | 0.636 ± 0.026 | 0.645 ± 0.019 | 0.706 ± 0.027 | 0.597 ± 0.17
VLVTFFIRSGVS | 0.456 ± 0.0087 | 0.54 ± 0.0081 | 0.356 ± 0.042 | 0.536 ± 0.018 | 0.311 ± 0.01 | 0.338 ± 0.028 | 0.49942 ± 1.4e-06 | 0.411 ± 0.045
VRFLSLNVLFFC | 0.54 ± 0.032 | 0.625 ± 0.022 | 0.482 ± 0.025 | 0.628 ± 0.028 | 0.222 ± 0.0066 | 0.244 ± 0.029 | 0.48 ± 0.0046 | 0.38 ± 0.033
FLASLCFFPLLC | 0.388 ± 0.041 | 0.413 ± 0.031 | 0.42 ± 0.027 | 0.5574 ± 0.0039 | 0.496 ± 0.024 | 0.372 ± 0.02 | 0.5038 ± 0.0034 | 0.456 ± 0.014
GWLVGLGLVFFT | 0.586 ± 0.018 | 0.664 ± 0.01 | 0.513 ± 0.033 | 0.661 ± 0.014 | 0.488 ± 0.02 | 0.499 ± 0.031 | 0.618 ± 0.011 | 0.514 ± 0.03
FLRLSFLIFPLH | 0.546 ± 0.029 | 0.6295 ± 0.00058 | 0.471 ± 0.03 | 0.583 ± 0.0021 | 0.396 ± 0.026 | 0.409 ± 0.023 | 0.546 ± 0.029 | 0.498 ± 0.02
LFTSGNSLVLVH | 0.21126 ± 0.00018 | 0.257 ± 0.02 | 0.236 ± 0.037 | 0.3909 ± 0.00093 | 0.202 ± 0.0086 | 0.25 ± 0.034 | 0.362 ± 0.0076 | 0.365 ± 0.0042
LYVLNILSFVCV | 0.1572 ± 0.0013 | 0.25 ± 0.0041 | 0.137 ± 0.013 | 0.251 ± 0.023 | 0.115 ± 0.0099 | 0.117 ± 0.017 | 0.207 ± 0.0027 | 0.1688 ± 0.00051
